Data: patent publication US11912794B2, “Modulation of structured polypeptide specificity” (BicycleRD Limited, priority 2011, dated 2024)
Ends that are not written are not given here.

Molecular target: T1, Biotinylated hPK (Homo sapiens, UniProt P03952)
T1 construct: IHPKA, from human plasma; purchased Innovative Research, Novi, MI, USA IHPKA; host or cells: human plasma
Experiment: Phage selections, abundance of sequences in selection outputs
Type: binding
Details: for Frequency (relative abundance in the total selection outputs): randomised WPAR motif at positions 2, 3, 4 & 5 within the 06-34-03 sequence
Procedure: Glycerol stocks of phage libraries were diluted to OD600=0.1 in 500 ml 2YT/chloramphenicol (30 μg/ml) cultures and phage were produced at 30° C. over night (15-16 hrs). Phage were purified and chemically modified as described in Heinis, et al., Nat Chem Biol 2009, 5 (7), 502-7 Biotinylated hPK (3 μg) (IHPKA, from human plasma, Innovative Research, Novi, MI, USA) was incubated with 50 μl pre-washed magnetic streptavidin beads (Dynal, M-280 from Invitrogen, Paisley, UK) for 10 minutes at RT. […] Blocked beads were then mixed with the blocked chemically modified phage and incubated for 30 minutes on a rotating wheel at RT. Beads were washed 8 times with washing buffer containing 0.1% Tween 20 and twice with washing buffer before incubation with 100 μl of 50 mM glycine, pH 2.2 for 5 minutes. Eluted phage were transferred to 50 μl of 1 M Tris-Cl, pH 8 for neutralization, incubated with 30 ml TG1 cells at OD600=0.4 for 90 minutes at 37° C. and the cells were plated on large 2YT/chloramphenicol plates. One or two additional rounds of panning were performed using the same procedures. In the second round of selection, neutravidin-coated magnetic beads were used to prevent the enrichment of streptavidin-specific peptides. The neutravidin beads were prepared by reacting 0.8 mg neutravidin (Pierce, Rockford, IL, USA) with 0.5 ml tosyl-activated magnetic beads (Dynal, M-280 from Invitrogen, Paisley, UK) according to the supplier's instructions.
The WPAR (SEQ ID NO: 18) motif identified from Example 1 was analysed in the context of the 06-34-03 peptide, in order to identify alternatives or improvements to the WPAR (SEQ ID NO: 18) motif. A library was constructed where positions 1, 6, 7, 8, 9 &10 of 06-34-03 were fixed and positions 2, 3, 4 & 5 were randomised (see ‘Randomisation of peptide domains—Library construction’ in Methods above). Selections against human plasma Kallikrein were performed at a variety of stringencies (see Phage selections' in Methods above). All output sequences were identified and analysed for target binding (see ‘Randomisation of peptide domains—Assay of binding of individual clones’ in Methods above). Table 17 lists each unique sequence, its relative abundance in the selection output (frequency), and a rank number according to target binding strength.

[1] = 2nd stringency from High (1st value of cell)
[2] = 3rd stringency from High (2nd value of cell)
[3] = 4th stringency from High (3rd value of cell)
[4] = 5th stringency from High (4th value of cell)

T1 sequence (P03952 20-638): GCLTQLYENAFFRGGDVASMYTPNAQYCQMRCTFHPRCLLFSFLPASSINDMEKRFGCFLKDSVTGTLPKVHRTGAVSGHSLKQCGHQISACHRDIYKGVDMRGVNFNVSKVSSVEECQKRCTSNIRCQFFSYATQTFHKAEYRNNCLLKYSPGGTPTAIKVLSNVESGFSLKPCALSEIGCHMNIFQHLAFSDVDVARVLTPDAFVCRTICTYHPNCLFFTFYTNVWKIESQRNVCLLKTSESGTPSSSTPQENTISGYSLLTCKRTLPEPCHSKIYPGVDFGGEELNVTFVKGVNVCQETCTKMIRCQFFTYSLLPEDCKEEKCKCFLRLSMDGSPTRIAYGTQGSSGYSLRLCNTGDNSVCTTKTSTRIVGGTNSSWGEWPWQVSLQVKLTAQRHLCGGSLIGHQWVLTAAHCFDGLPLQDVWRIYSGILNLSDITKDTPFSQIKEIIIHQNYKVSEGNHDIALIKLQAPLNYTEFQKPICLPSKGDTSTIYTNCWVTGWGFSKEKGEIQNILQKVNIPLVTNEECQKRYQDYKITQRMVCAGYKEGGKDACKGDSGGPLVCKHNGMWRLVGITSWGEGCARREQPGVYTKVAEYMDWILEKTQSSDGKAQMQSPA

SEQ ID NO: 100 (CSWPYKCTHQDLC; Synthetic sequence Kallikrein binder identified from selections using a randomised WPAR motif at positions 2, 3, 4 & 5 within the 06-34-03 sequence of PCT/EP2012/069898 (SEQ ID NO 58))
Frequency (relative abundance in the total selection outputs): 1

SEQ ID NO: 101 (CSFLYKCTHQDLC; Synthetic sequence Kallikrein binder identified from selections using a randomised WPAR motif at positions 2, 3, 4 & 5 within the 06-34-03 sequence of PCT/EP2012/069898 (SEQ ID NO 58))
Frequency (relative abundance in the total selection outputs): 2

SEQ ID NO: 102 (CSLPIRCTHQDLC; Synthetic sequence Kallikrein binder identified from selections using a randomised WPAR motif at positions 2, 3, 4 & 5 within the 06-34-03 sequence of PCT/EP2012/069898 (SEQ ID NO 58))
Frequency (relative abundance in the total selection outputs): 1

SEQ ID NO: 103 (CSMPYRCTHQDLC; Synthetic sequence Kallikrein binder identified from selections using a randomised WPAR motif at positions 2, 3, 4 & 5 within the 06-34-03 sequence of PCT/EP2012/069898 (SEQ ID NO 58))
Frequency (relative abundance in the total selection outputs): 2

SEQ ID NO: 104 (CSIPFKCTHQDLC; Synthetic sequence Kallikrein binder identified from selections using a randomised WPAR motif at positions 2, 3, 4 & 5 within the 06-34-03 sequence of PCT/EP2012/069898 (SEQ ID NO 58))
Frequency (relative abundance in the total selection outputs): 1

SEQ ID NO: 105 (CSYPWRCTHQDLC; Synthetic sequence Kallikrein binder identified from selections using a randomised WPAR motif at positions 2, 3, 4 & 5 within the 06-34-03 sequence of PCT/EP2012/069898 (SEQ ID NO 58))
Frequency (relative abundance in the total selection outputs): 1

SEQ ID NO: 106 (CSFPFWCTHQDLC; Synthetic sequence Kallikrein binder identified from selections using a randomised WPAR motif at positions 2, 3, 4 & 5 within the 06-34-03 sequence of PCT/EP2012/069898 (SEQ ID NO 58))
Frequency (relative abundance in the total selection outputs): 1

SEQ ID NO: 107 (CSFSYKCTHQDLC; Synthetic sequence Kallikrein binder identified from selections using a randomised WPAR motif at positions 2, 3, 4 & 5 within the 06-34-03 sequence of PCT/EP2012/069898 (SEQ ID NO 58))
Frequency (relative abundance in the total selection outputs): 1

SEQ ID NO: 108 (CSWSYRCTHQDLC; Synthetic sequence Kallikrein binder identified from selections using a randomised WPAR motif at positions 2, 3, 4 & 5 within the 06-34-03 sequence of PCT/EP2012/069898 (SEQ ID NO 58))
Frequency (relative abundance in the total selection outputs): 1

SEQ ID NO: 109 (CSFMYKCTHQDLC; Synthetic sequence Kallikrein binder identified from selections using a randomised WPAR motif at positions 2, 3, 4 & 5 within the 06-34-03 sequence of PCT/EP2012/069898 (SEQ ID NO 58))
Frequency (relative abundance in the total selection outputs): 1

SEQ ID NO: 110 (CSQVVGCTHQDLC; Synthetic sequence Kallikrein binder identified from selections using a randomised WPAR motif at positions 2, 3, 4 & 5 within the 06-34-03 sequence of PCT/EP2012/069898 (SEQ ID NO 58))
Frequency (relative abundance in the total selection outputs): 1

SEQ ID NO: 111 (CRWPYHCTHQDLC; Synthetic sequence Kallikrein binder identified from selections using a randomised WPAR motif at positions 2, 3, 4 & 5 within the 06-34-03 sequence of PCT/EP2012/069898 (SEQ ID NO 58))
Frequency (relative abundance in the total selection outputs): 1

SEQ ID NO: 112 (CSLFDHCTHQDLC; Synthetic sequence Kallikrein binder identified from selections using a randomised WPAR motif at positions 2, 3, 4 & 5 within the 06-34-03 sequence of PCT/EP2012/069898 (SEQ ID NO 58))
Frequency (relative abundance in the total selection outputs): 1

SEQ ID NO: 113 (CSHRRWCTHQDLC; Synthetic sequence Kallikrein binder identified from selections using a randomised WPAR motif at positions 2, 3, 4 & 5 within the 06-34-03 sequence of PCT/EP2012/069898 (SEQ ID NO 58))
Frequency (relative abundance in the total selection outputs): 1

SEQ ID NO: 114 (CSWQARCTHQDLC; Synthetic sequence Kallikrein binder identified from selections using a randomised WPAR motif at positions 2, 3, 4 & 5 within the 06-34-03 sequence of PCT/EP2012/069898 (SEQ ID NO 58))
Frequency (relative abundance in the total selection outputs): 1

WPFR: phage clone: WPFR at positions 2-5 within the 06-34-03 sequence, TBMB-cyclised (also: TBMB-cyclised within the 06-34-03 context, the cysteines lie outside this motif)
Relative abundance of motif in selection output [1]: 3% | Relative abundance of motif in selection output [2]: 0% | Relative abundance of motif in selection output [3]: 0% | Relative abundance of motif in selection output [4]: 6% | Relative abundance of motif in selection output (stringency High): 7% | Relative abundance of motif in selection output (stringency LOW): 4%

WPSR: phage clone: WPSR at positions 2-5 within the 06-34-03 sequence, TBMB-cyclised (also: TBMB-cyclised within the 06-34-03 context, the cysteines lie outside this motif)
Relative abundance of motif in selection output [1]: 31% | Relative abundance of motif in selection output [2]: 41% | Relative abundance of motif in selection output [3]: 26% | Relative abundance of motif in selection output [4]: 23% | Relative abundance of motif in selection output (stringency High): 34% | Relative abundance of motif in selection output (stringency LOW): 11%

WPYR: phage clone: WPYR at positions 2-5 within the 06-34-03 sequence, TBMB-cyclised (also: TBMB-cyclised within the 06-34-03 context, the cysteines lie outside this motif)
Relative abundance of motif in selection output [1]: 3% | Relative abundance of motif in selection output [2]: 0% | Relative abundance of motif in selection output [3]: 4% | Relative abundance of motif in selection output [4]: 0% | Relative abundance of motif in selection output (stringency High): 3% | Relative abundance of motif in selection output (stringency LOW): 0%
